Measurements taken from patent US11254720B2, “Methods and systems for designing and/or characterizing soluble lipidated ligand agents” (Tufts Medical Center, priority 2013, dated 2022).
Like-named read-outs stand apart in the source and are kept apart here. Each block holds one molecule with its values, some of them ahead of it. Non-standard residues stand in square brackets, D forms with d. Residues, ends and D or L forms follow the SMILES beside them. Tic = O=C(O)[C@@H]1Cc2ccccc2CN1

Assays:
human CMKLR1 [1] = biological target: T1, human CMKLR1 (Homo sapiens, UniProt Q99788); experiment: SRE-luciferase reporter gene assay in transfected HEK293 cells; settings: for Activity of membrane-tethered ligand at human CMKLR1: tethered ligand cDNA cotransfected, luciferase 24 hours after transfection
T1 sequence (Q99788 1-373): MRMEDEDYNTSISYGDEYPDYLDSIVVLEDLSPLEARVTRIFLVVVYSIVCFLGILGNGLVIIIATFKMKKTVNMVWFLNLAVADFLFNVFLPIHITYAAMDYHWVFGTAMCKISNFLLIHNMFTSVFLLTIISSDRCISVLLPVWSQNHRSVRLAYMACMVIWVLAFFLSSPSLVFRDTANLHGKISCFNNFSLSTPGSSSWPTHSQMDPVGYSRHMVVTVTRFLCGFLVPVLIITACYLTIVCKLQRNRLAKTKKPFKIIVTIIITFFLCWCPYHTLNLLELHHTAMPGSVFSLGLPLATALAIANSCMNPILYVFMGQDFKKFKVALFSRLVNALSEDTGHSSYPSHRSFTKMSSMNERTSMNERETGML
Description: (§1) Receptor-mediated signaling was assessed as previously described. Briefly, HEK293 cells were plated at a density of 6,000 cells/well into 96-well clear-bottom plates and grown to ˜80% confluence. […] Expression of Gq5i66V directs signaling of the Gαi-coupled chemerin receptor to stimulation of a Gαq-dependent SRE5x-Luc-PEST reporter gene. For experiments investigating the agonist function of soluble and lipidated peptides, tethered ligand cDNA was not included in the transfection mixture. Twenty four hours after transfection, cells were stimulated with or without peptide agonist for 4 hours in serum-free medium. […] Following ligand stimulation, the media was aspirated and luciferase activity measured using SteadyLite reagent and quantified using a TopCount NTX. A β-galactosidase assay was then performed following assessment of luminescence. Cleavage of 2-nitrophenyl β-D-galactopyranoside substrate was quantified after incubation of cell lysates at 37° C. for 30 to 60 minutes by measuring the optical density at 420 nm on a SpectraMax microplate reader. Luciferase reporter gene activities were normalized to corresponding β-galactosidase activity controls.
(§2) HEK293 cells were transiently transfected with cDNAs encoding i) human or mouse CMKLR1, ii) a SRE5x-Luc reporter gene, iii) a Gαq5i66V chimera, and iv) a β-galactosidase control. Twenty-four hours after transfection, cells were stimulated with ligand for 4 hours and luciferase activity determined as described in Experimental Procedures. Luciferase activity was normalized relative to the maximal value observed using saturating concentrations of the corresponding soluble ligand (=100%). […] As a next step, the effect of membrane anchoring on chemerin activity was examined. […] HEK293 cells were transiently transfected with cDNAs encoding i) various tethered ligands, ii) human or mouse CMKLR1, iii) a SRE5x-Luc reporter gene, iv) aGαq5i66V chimera, and v) a β-galactosidase control. Twenty-four hours after transfection, luciferase activity was determined as described in Experimental Procedures.
(§3) HEK293 cells were transiently transfected with cDNAs encoding i) 8 ng of various tethered ligands, ii) human or mouse CMKLR1, iii) a SRE5x-Luc reporter gene, iv) a Gαq5i66V chimera, and v) a β-galactosidase control. Twenty-four hours after transfection, luciferase activity was determined as described in Experimental Procedures.

mouse CMKLR1 [2] = biological target: T2, mouse CMKLR1 (Mus musculus, UniProt P97468); experiment: as above; settings: for Activity of membrane-tethered ligand at mouse CMKLR1: tethered ligand cDNA cotransfected, luciferase 24 hours after transfection
T2 sequence (P97468 1-371): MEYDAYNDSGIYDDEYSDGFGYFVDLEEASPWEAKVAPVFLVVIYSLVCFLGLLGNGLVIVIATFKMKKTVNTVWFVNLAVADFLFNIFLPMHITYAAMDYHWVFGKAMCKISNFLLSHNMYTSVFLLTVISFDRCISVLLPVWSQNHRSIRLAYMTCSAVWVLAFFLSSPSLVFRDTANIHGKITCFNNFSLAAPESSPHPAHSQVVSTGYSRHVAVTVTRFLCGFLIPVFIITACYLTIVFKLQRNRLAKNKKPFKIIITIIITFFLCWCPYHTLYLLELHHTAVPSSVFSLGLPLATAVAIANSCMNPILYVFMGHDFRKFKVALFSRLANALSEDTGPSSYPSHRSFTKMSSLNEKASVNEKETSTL
Description: as §1, §2, §3

Adult CD1 mice = experiment: Chronic constriction injury neuropathic pain model, von Frey and acetone tests; type: in vivo, mouse; settings: intrathecal 100 pmol, 1 week after CCI
Source text: Intrathecal injection of 1-stable chem (100 pmol), 1 week after CCI, reduces CCI-induced mechanical hypersensitivity (panels A+C) and cold allodynia (panel E). Intrathecal injection of ResolvinE1 (RvE1)(100 pmol), 1 week after CCI, reduces CCI-induced mechanical hypersensitivity (panels B+D) and cold allodynia (panel F). BL=baseline before surgery.
Adult CD1 mice (male, 25-35 g) were used for behavioral studies. Mice were group-housed and kept under a 12-hour light/dark cycle. […]
Nerve injury-induced mechanical allodynia and hypersensitivity were assessed by von Frey hairs as previously described (see Xu et al., Resolvin E1 inhibits neuropathic pain and spinal cord microglial activation following peripheral nerve injury, 2013, J. Neuroimmune Pharmacol, 8: 37-41). […] The 50% paw withdrawal threshold (PWT) was determined using Dixon's up-down method. For paw withdrawal frequency (PWF), the same von Frey hair (0.16 g) was applied 10 times and the number of positive responses to the stimulations counted. A positive response was scored if the mouse sharply withdrew the paw or flinched upon removal of the stimulus. […] In brief, a drop of acetone was placed against the plantar paw of the mouse and the mouse's response monitored for the next 20 seconds. […]

CCK2R = biological target: T3, CCK2R (Homo sapiens, UniProt P32239); experiment: Antagonist inhibition of agonist-induced CCK2R signaling (luciferase); type: cell-based
T3 construct: expressed in transfected cells; host or cells: HEK293
T3 sequence (P32239 1-447): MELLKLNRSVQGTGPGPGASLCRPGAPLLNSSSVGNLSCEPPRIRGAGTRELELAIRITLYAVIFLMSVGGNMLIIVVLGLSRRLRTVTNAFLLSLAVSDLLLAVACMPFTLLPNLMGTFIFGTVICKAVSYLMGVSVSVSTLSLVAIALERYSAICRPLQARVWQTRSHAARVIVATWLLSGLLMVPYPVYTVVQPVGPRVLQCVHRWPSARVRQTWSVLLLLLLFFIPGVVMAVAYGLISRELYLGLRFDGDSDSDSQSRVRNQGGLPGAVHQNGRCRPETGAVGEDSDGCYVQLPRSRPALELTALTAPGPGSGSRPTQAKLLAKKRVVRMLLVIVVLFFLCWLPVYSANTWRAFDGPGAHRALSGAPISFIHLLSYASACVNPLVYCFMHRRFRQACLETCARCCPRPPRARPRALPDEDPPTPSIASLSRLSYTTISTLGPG
Description: A) YM022 blocks tethered CCK4-Gly mediated CCK2R signaling. HEK293 cells were cotransfected with cDNAs encoding: CCK2R, a 5X-SRE-Luc-pest reporter gene, tCCK4-Gly (as indicated), and a β-galactosidase gene to control for transfection efficiency. Four hours following transfection, cells were with treated with increasing concentrations of YM022 for 20 hours. […] B) YM022 blocks s-CCK-4-Gly-COOH and l-CCK4-Gly-COOH mediated activation of CCK2R. HEK293 cells were transfected as indicated above. Twenty hours after transfection, cells were with treated with increasing concentrations of YM022 together with either 10 μM of l-CCK4-Gly-COOH or s-CCK4-Gly-COOH. […] Abbreviations: tCCK4-Gly, tethered glycine extended CCK4; s-CCK4-Gly-COOH, soluble glycine extended CCK4 with a C-terminal free acid; 1-CCK4-Gly-COOH, lipidated glycine extended CCK4 with a C-terminal free acid; CCK2R, cholecystokinin 2 receptor.

human CMKLR1 [3] = biological target: T1, human CMKLR1; experiment: Washout experiments (serial washes after 15 min ligand, luciferase readout); settings: three washes after 15 min ligand
Description: (§4) Agonist activity was compared with and without serial washings shortly after addition of ligand. Briefly, HEK293 cells were plated and transfected as described above with the addition of a poly-L-lysine plate pretreatment step to enhance cell adhesion. Twenty-four hours after transfection, cells were stimulated with increasing concentrations of agonist for 15 minutes at 37° C. Selected wells were washed three times with serum-free media. Plates were then incubated for an additional 4 hours. Receptor mediated signaling was assessed using a luciferase based assay as described above.
(§5) HEK293 cells were transiently transfected with cDNAs encoding i) human or mouse CMKLR1, ii) a SRE5x-Luc reporter gene, iii) a Gαq5i66V chimera, and iv) a β-galactosidase control. Twenty-four hours after transfection, cells were stimulated with increasing concentrations of various ligands for 15 minutes. Selected wells were then washed three times with serum-free media and plates were further incubated for 4 hours.

mouse CMKLR1 [4] = biological target: T2, mouse CMKLR1; experiment: as above; settings: three washes after 15 min ligand
Description: as §4, §5

[5] = system: HEK293 cells transfected with vector control (pcDNA1.1); experiment: Luciferase reporter assay in cells transfected with vector control; type: cell-based, human; settings: cells transfected with pcDNA1.1 vector control
Description: as §1

Activity of membrane-tethered ligand at human CMKLR1 (human CMKLR1 [1]): activated | Activity of membrane-tethered ligand at human CMKLR1 (human CMKLR1 [1]; listed as FS): comparable activity | Activity of membrane-tethered ligand at mouse CMKLR1 (mouse CMKLR1 [2]): activated
Molecule: tChem 149-157: membrane-tethered C-terminal chemerin peptide (amino acids 149-157), endogenous sequence ending phenylalanine-serine (MSTSMIRDVELAEEALPKKTGGPQGSRRCLFSLFIVAGATTLFCLLHFGVIYFPGQFAFS; left off: small tags and cut ends)

Molecule: CC[C@@H](O)/C=C/C=C\C[C@@H](O)/C=C/C=C/C=C\[C@@H](O)CCCC(=O)O [RvE1, reference compound]
Time point at which a significant decrease in pain scores was observed (Adult CD1 mice): 1 h

Molecule: Cc1cccc(NC(=O)N[C@@H]2N=C(c3ccccc3)c3ccccc3N(CC(=O)c3ccccc3C)C2=O)c1 [YM022]
IC50 (CCK2R; agonist l-CCK4-Gly-COOH 10 μM, 4 hours, read-out: IC50 for inhibition of l-CCK4-Gly-COOH induced CCK2R signaling): 10.2 nM | IC50 (CCK2R; agonist s-CCK4-Gly-COOH 10 μM, 4 hours, read-out: IC50 for inhibition of s-CCK4-Gly-COOH induced CCK2R signaling): 0.84 nM | IC50 (CCK2R; agonist tCCK4-Gly (tethered), antagonist 20 hours, read-out: IC50 for inhibition of tCCK4-Gly induced CCK2R signaling): 0.54 nM

Agonist activity after serial washes, human CMKLR1 (human CMKLR1 [3]): rapidly decreased | Agonist activity after serial washes, mouse CMKLR1 (mouse CMKLR1 [4]): rapidly decreased | EC50 (human CMKLR1 [1]; pEC50, Human CMKLR1, no wash, mean ± S.E.M.): 61.7 nM | EC50 (mouse CMKLR1 [2]; pEC50, Mouse CMKLR1, no wash, mean ± S.E.M.): 12 nM
Molecule: CC(C)C[C@H](NC(=O)[C@H](Cc1ccccc1)NC(=O)[C@H](N)Cc1ccc(O)cc1)C(=O)N1CCC[C@H]1C(=O)N[C@H](CO)C(=O)N[C@@H](CCC(N)=O)C(=O)N[C@@H](Cc1ccccc1)C(=O)N[C@H](C)C(=O)N1Cc2ccccc2C[C@H]1C(=O)N[C@@H](CO)C(=O)O [s-Stable Chem, reference compound] (H-[dY]FLP[dS]QF[dA][Tic]S-OH)
Agonist activity without CMKLR1 expression [5]: no agonist activity

Activity of membrane-tethered ligand at human CMKLR1 (human CMKLR1 [1]): activated | Activity of membrane-tethered ligand at mouse CMKLR1 (mouse CMKLR1 [2]): activated
B1: tChem 21-157: membrane-tethered full length chemerin (amino acids 21-157) (protein)
chain: MSTSMIRDVELAEEALPKKTGGPQGSRRCLFSLFIVAGATTLFCLLHFGVIELTEAQRRGLQVALEEFHKHPPVQWAFQETSVESAVDTPFPAGIFVRLEFKLQQTSCRKRDWKKPECKVRPNGRKRKCLACIKLGSEDKVLGRLVHCPIETQVLREAEEHQETQCLRVQRAGEDPHSFYFPGQFAFS
modifications: left off: small tags and cut ends

Activity of membrane-tethered ligand at human CMKLR1 (human CMKLR1 [1]): lack activity | Activity of membrane-tethered ligand at mouse CMKLR1 (mouse CMKLR1 [2]): lack activity
B2: tGalanin: negative control membrane-tethered ligand with the amino acid sequence of human galanin (protein)
chain: MSTSMIRDVELAEEALPKKTGGPQGSRRCLFSLFIVAGATTLFCLLHFGVIGWTLNSAGYLLGPHAVGNHRSFSDKNGLTS
modifications: left off: small tags and cut ends

Activity of membrane-tethered ligand at human CMKLR1 (human CMKLR1 [1]): lack activity | Activity of membrane-tethered ligand at mouse CMKLR1 (mouse CMKLR1 [2]): lack activity
B3: tChem 1-163: membrane-tethered ligand encoding pre-prochemerin (amino acids 1-163), TNFα transmembrane domain (protein)
chain: MSTSMIRDVELAEEALPKKTGGPQGSRRCLFSLFIVAGATTLFCLLHFGVIMRRLLIPLALWLGAVGVGVAELTEAQRRGLQVALEEFHKHPPVQWAFQETSVESAVDTPFPAGIFVRLEFKLQQTSCRKRDWKKPECKVRPNGRKRKCLACIKLGSEDKVLGRLVHCPIETQVLREAEEHQETQCLRVQRAGEDPHSFYFPGQFAFSKALPRS
modifications: left off: small tags and cut ends
